Source: the supplement of paper PMC9233669
Fewer inactive variants are shown than the library holds.

How the values were obtained:
[1] = test system: biotinyl-Phe-oxazolone; experiment: self-aminoacylation, catalytic enhancement (BFO) (fold over background); higher = more active; k-Seq, kA / k0A0; sequences stand for … in GGGAAUGGAUCCACAUCUACGAAUUC…UUCACUGCAGACUUGACGAAGCUG
Outline: (§1)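 The uncatalyzed rate is the low-activity peak of a bimodal Gaussian fit, and catalytic enhancement is median kA divided by it. The kA values came from pseudo-first-order fits, with 1000 bootstraps, of per-sequence fraction reacted measured by streptavidin capture, triplicate qPCR and Illumina sequencing. Mutagenized RNA pools with a 21-nt variable region (0.43 μM) were reacted with each biotinyl-aminoacyl-oxazolone at 2–1250 μM in 50 μL HEPES/NaCl/KCl/MgCl2/CaCl2 buffer with 5% acetonitrile, pH 6.9–7.0, for 90 minutes at room temperature.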

[2] = test system: biotinyl-Ile-oxazolone; experiment: self-aminoacylation, catalytic enhancement (BIO) (fold over background); higher = more active; k-Seq, kA / k0A0; sequences stand for … in GGGAAUGGAUCCACAUCUACGAAUUC…UUCACUGCAGACUUGACGAAGCUG
Outline: as §1

[3] = test system: biotinyl-Met-oxazolone; experiment: self-aminoacylation, catalytic enhancement (BMO) (fold over background); higher = more active; k-Seq, kA / k0A0; sequences stand for … in GGGAAUGGAUCCACAUCUACGAAUUC…UUCACUGCAGACUUGACGAAGCUG
Outline: as §1

[4] = test system: biotinyl-Val-oxazolone; experiment: self-aminoacylation, catalytic enhancement (BVO) (fold over background); higher = more active; k-Seq, kA / k0A0; sequences stand for … in GGGAAUGGAUCCACAUCUACGAAUUC…UUCACUGCAGACUUGACGAAGCUG
Outline: as §1

[5] = test system: biotinyl-Leu-oxazolone; experiment: self-aminoacylation, catalytic enhancement (BLO) (fold over background); higher = more active; k-Seq, kA / k0A0; sequences stand for … in GGGAAUGGAUCCACAUCUACGAAUUC…UUCACUGCAGACUUGACGAAGCUG
Outline: as §1

[6] = test system: biotinyl-Trp-oxazolone; experiment: self-aminoacylation, catalytic enhancement (BWO) (fold over background); higher = more active; k-Seq, kA / k0A0; sequences stand for … in GGGAAUGGAUCCACAUCUACGAAUUC…UUCACUGCAGACUUGACGAAGCUG
Outline: as §1

Sequence	self-aminoacylation [1]	self-aminoacylation [2]	self-aminoacylation [3]	self-aminoacylation [4]	self-aminoacylation [5]	self-aminoacylation [6]
AUUACCUUGAUCAUCGAGUGA [Fam2.1 aminoacylation ribozyme variant]	37.6	3.94	8.63	4.44	8.21	10.7
AUUACCUUGCUCAUCGAGUGA [Fam2.1 aminoacylation ribozyme variant]	4.55	1.68	2.29	1.82	2.31	3.02
AUUACCUUGGUAAUCGAGUGA [Fam2.1 aminoacylation ribozyme variant]	40	3.52	7.66	3.87	8.08	8.42
AUUACCUUGGUCAACGAGUGA [Fam2.1 aminoacylation ribozyme variant]	17.5	3.57	6.26	3.54	6	6.5
AUUACCUUGGUCACCGAGUGA [Fam2.1 aminoacylation ribozyme variant]	23.4	2.87	6.15	3.11	6.74	6.72
AUUACCUUGGUCAGCGAGUGA [Fam2.1 aminoacylation ribozyme variant]	21.5	3.26	5.05	3.08	5.38	6.84
AUUACCUUGGUCAUCGAGAGA [Fam2.1 aminoacylation ribozyme variant]	0.809	0.924	0.957	1.19	0.907	0.946
AUUACCUUGGUCAUCGCGUGA [Fam2.1 aminoacylation ribozyme variant]	130	7.37	17.3	9.23	19.2	19.5
AUUACCUUGGUCAUCGGGUGA [Fam2.1 aminoacylation ribozyme variant]	53.3	5.69	9.54	6.05	10.6	10.8
AUUACCUUGGUCUUCGAGUGA [Fam2.1 aminoacylation ribozyme variant]	32.9	3.43	6.13	4.04	6.52	7.78
AUUACCUUGGUUAUCGAGUGA [Fam2.1 aminoacylation ribozyme variant]	44.2	3.66	8.15	4.03	7.92	9.73
AUUACGCAGGUCAUCGAGUGA [Fam2.1 aminoacylation ribozyme variant]	3.59	2.73	3.04	2.45	3.44	5.06
AUUACGCUAGUCAUCGAGUGA [Fam2.1 aminoacylation ribozyme variant]	2.19	2.48	3.01	2.47	3.48	3.63
AUUACGCUGGUCAUCGACUGA [Fam2.1 aminoacylation ribozyme variant]	0.691	1.48	0.889	1.24	1.73	1.65
AUUACGCUGGUCAUCGAGGGA [Fam2.1 aminoacylation ribozyme variant]	1.38	1.61	1.46	2.03	1.98	2.25
AUUACGCUGGUCAUCGAGUCA [Fam2.1 aminoacylation ribozyme variant]	0.768	1.15	1.15	1.23	1	0.981
AUUACGCUGGUCAUCGAGUGG [Fam2.1 aminoacylation ribozyme variant]	1.66	1.46	2.06	1.45	1.87	1.73
AUUACGCUGGUUAUCGAGUGA [Fam2.1 aminoacylation ribozyme variant]	27.5	3.22	5.92	3.68	5.48	6.53
AUUACGCUUGUCAUCGAGUGA [Fam2.1 aminoacylation ribozyme variant]	4.09	2.6	3.16	2.36	3.93	4.03
AUUACUCUAGUCAUCGAGUGA [Fam2.1 aminoacylation ribozyme variant]	19.1	2.95	5.28	2.9	5.41	6.32
AUUACUCUGGUCAACGAGUGA [Fam2.1 aminoacylation ribozyme variant]	26.9	3.12	5	2.76	5.72	7.22
AUUACUCUGGUCAUCGAGUGA [Fam2.1 aminoacylation ribozyme variant]	6.25	3.77	6.63	3.78	6.98	7.48
AUUACUCUGGUCAUCGAGUGU [Fam2.1 aminoacylation ribozyme variant]	4.35	2.52	4.24	2.57	4.37	3.92
AUUACUCUGGUCAUCGGGUGA [Fam2.1 aminoacylation ribozyme variant]	39.7	5.43	10.1	6.05	11.8	12.2
AUUACUCUGGUCAUGGAGUGA [Fam2.1 aminoacylation ribozyme variant]	3.58	2.42	3.28	2.05	3.98	3.35
AUUACUCUGGUCCUCGAGUGA [Fam2.1 aminoacylation ribozyme variant]	18.2	2.31	3.62	2.01	4.34	4.62

Sequence	self-aminoacylation [1]	self-aminoacylation [2]	self-aminoacylation [3]	self-aminoacylation [4]	self-aminoacylation [5]	self-aminoacylation [6]
AUUACUCUGGUCUUCGAGUGA [Fam2.1 aminoacylation ribozyme variant]	21.2	3.13	5.11	2.85	5.04	7.1
AUUAGCCAGGUCAUCGAGUGA [Fam2.1 aminoacylation ribozyme variant]	19.1	3.72	5.35	3.8	5.48	6.91
AUUAGCCUGGGCAUCGAGUGA [Fam2.1 aminoacylation ribozyme variant]	57.8	3.66	6.92	3.8	8.51	7.8
AUUAGCCUGGUCAUAGAGUGA [Fam2.1 aminoacylation ribozyme variant]	18.4	2.96	4.83	3.18	5.43	7.07
AUUAGCCUGGUCAUCAAGUGA [Fam2.1 aminoacylation ribozyme variant]	17.9	2.74	4.31	2.45	4.41	4.94
AUUAGCCUGGUCAUCGGGUGA [Fam2.1 aminoacylation ribozyme variant]	94.3	6.74	10.1	7.06	13.3	13.4
AUUAGCCUGGUCAUCGUGUGA [Fam2.1 aminoacylation ribozyme variant]	21.6	1.96	3.38	2.07	3.17	4.27
AUUAGGCUGGUCAUCGAGUGA [Fam2.1 aminoacylation ribozyme variant]	8.97	2.53	3.01	2.48	2.85	4.23
AUUAUACUGGUCAUCGAGUGA [Fam2.1 aminoacylation ribozyme variant]	6.45	2.91	4.91	2.56	5.28	5.99
AUUAUCCUGGACAUCGAGUGA [Fam2.1 aminoacylation ribozyme variant]	34.7	2.88	6.78	3.06	6.24	8.19
AUUAUCCUGGUCAUCCAGUGA [Fam2.1 aminoacylation ribozyme variant]	11.1	2.14	3.69	2.28	4.27	4.26
AUUAUCCUGGUCAUCGAGCGA [Fam2.1 aminoacylation ribozyme variant]	1.01	1.77	1.59	1.41	1.83	1.46
AUUAUCCUGGUCAUCGAGUGA [Fam2.1 aminoacylation ribozyme variant]	20.7	6.23	13	6.5	13.5	14.5
AUUAUCCUGGUCAUCGAGUGC [Fam2.1 aminoacylation ribozyme variant]	1.72	1.29	1.77	1.25	2.16	0.981
AUUAUCCUGGUCAUCGGGUGA [Fam2.1 aminoacylation ribozyme variant]	69.6	7.1	14.1	7.7	17.1	17.4
AUUAUCCUGGUCAUCUAGUGA [Fam2.1 aminoacylation ribozyme variant]	77.8	4.87	10.6	4.98	10.8	13.2
AUUAUCCUGGUCAUUGAGUGA [Fam2.1 aminoacylation ribozyme variant]	67.5	5.33	11.7	5.05	11.7	13.9
AUUAUCCUGGUGAUCGAGUGA [Fam2.1 aminoacylation ribozyme variant]	45.5	3.55	7.34	3.46	7.98	9.06
AUUAUCGUGGUCAUCGAGUGA [Fam2.1 aminoacylation ribozyme variant]	27.7	2.83	4.44	3.25	4.54	5.66
AUUAUCUUGGUCAUCGAGUGA [Fam2.1 aminoacylation ribozyme variant]	12.4	3.54	5.16	3.11	5.73	6.57
AUUAUUCUGGUCAUCGAGUGA [Fam2.1 aminoacylation ribozyme variant]	22.9	3.4	5.31	3.12	6.25	7.13
AUUCAAAUAGGUCAUCGGGUG [Fam2.2 aminoacylation ribozyme variant]	40.1	3.9	5.54	3.38	7.01	5.77
AUUCAACUACGUCAUCGGGUG [Fam2.2 aminoacylation ribozyme variant]	26	3.26	4.57	2.95	6.07	4.72
AUUCAACUAGGUCACCGGGUG [Fam2.2 aminoacylation ribozyme variant]	38.8	4.11	5.89	4.37	6.53	5.05
AUUCAACUAGGUCAUCCGGUG [Fam2.2 aminoacylation ribozyme variant]	45.8	4.6	5.49	3.72	8.12	6.62
